According to PMC2739136:

Experiments:
Test in all cases: pull-down
MBP-TraR N122A, P33905 = target: MBP-TraR N122A, P33905
MBP-TraR I229Y, P33905 = target: T1, MBP-TraR I229Y, P33905
T1 chain: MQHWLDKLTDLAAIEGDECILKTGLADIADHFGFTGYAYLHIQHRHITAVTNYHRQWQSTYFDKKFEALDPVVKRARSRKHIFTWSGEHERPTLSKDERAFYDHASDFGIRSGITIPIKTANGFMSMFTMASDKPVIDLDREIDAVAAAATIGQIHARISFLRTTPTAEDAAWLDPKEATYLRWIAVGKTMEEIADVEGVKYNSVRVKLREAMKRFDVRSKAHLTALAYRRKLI

MBP-TraR Q154E, P33905 = target: T2, MBP-TraR Q154E, P33905
T2 chain: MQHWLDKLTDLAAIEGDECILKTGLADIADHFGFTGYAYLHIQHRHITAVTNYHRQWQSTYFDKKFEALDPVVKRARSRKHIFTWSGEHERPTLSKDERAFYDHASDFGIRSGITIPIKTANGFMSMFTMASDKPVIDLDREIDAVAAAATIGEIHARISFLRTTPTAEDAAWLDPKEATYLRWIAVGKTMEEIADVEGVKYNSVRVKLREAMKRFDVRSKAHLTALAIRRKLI

MBP-TraR G123R, P33905 = target: T3, MBP-TraR G123R, P33905
T3 chain: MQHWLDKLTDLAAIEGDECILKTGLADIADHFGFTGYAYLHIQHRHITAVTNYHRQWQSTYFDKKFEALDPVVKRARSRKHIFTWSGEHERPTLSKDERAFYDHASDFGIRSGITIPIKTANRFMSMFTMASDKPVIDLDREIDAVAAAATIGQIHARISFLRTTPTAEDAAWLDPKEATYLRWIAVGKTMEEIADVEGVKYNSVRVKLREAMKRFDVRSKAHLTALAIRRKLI

MBP-TraR A150E, P33905 = target: T4, MBP-TraR A150E, P33905
T4 chain: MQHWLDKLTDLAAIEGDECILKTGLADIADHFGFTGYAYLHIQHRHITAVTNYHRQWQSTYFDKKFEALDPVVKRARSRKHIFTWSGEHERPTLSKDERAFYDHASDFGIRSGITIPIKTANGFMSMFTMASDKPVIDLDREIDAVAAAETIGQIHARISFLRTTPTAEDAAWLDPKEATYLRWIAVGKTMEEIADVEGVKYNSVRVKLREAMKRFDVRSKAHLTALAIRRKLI

MBP-TraR F161A, P33905 = target: T5, MBP-TraR F161A, P33905
T5 chain: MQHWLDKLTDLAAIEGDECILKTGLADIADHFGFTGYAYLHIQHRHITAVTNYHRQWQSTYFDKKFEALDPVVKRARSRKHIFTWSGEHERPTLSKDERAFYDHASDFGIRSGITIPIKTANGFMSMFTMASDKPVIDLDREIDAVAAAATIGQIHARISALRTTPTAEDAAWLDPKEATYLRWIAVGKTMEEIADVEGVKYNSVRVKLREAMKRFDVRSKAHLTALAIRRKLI

MBP-TraR I155F, P33905 = target: T6, MBP-TraR I155F, P33905
T6 chain: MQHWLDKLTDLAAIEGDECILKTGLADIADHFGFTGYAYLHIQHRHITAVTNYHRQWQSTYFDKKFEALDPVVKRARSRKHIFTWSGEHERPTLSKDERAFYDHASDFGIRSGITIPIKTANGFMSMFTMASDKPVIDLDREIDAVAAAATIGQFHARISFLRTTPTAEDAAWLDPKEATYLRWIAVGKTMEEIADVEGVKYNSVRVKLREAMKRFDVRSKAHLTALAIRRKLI

MBP-TraR A150V, P33905 = target: T7, MBP-TraR A150V, P33905
T7 chain: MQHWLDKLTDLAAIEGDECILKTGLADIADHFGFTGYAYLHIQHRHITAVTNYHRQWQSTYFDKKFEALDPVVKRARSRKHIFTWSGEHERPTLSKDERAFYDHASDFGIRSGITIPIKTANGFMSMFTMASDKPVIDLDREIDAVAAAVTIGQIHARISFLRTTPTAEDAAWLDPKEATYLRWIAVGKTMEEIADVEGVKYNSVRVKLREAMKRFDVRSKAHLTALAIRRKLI

B1: native TraR (wild type) (protein)
chain: MQHWLDKLTDLAAIEGDECILKTGLADIADHFGFTGYAYLHIQHRHITAVTNYHRQWQSTYFDKKFEALDPVVKRARSRKHIFTWSGEHERPTLSKDERAFYDHASDFGIRSGITIPIKTANGFMSMFTMASDKPVIDLDREIDAVAAAATIGQIHARISFLRTTPTAEDAAWLDPKEATYLRWIAVGKTMEEIADVEGVKYNSVRVKLREAMKRFDVRSKAHLTALAIRRKLI
MBP-TraR N122A, P33905
  heterodimer formation (% of wild type) (% of wild type): 28
MBP-TraR I229Y, P33905
  heterodimer formation (% of wild type) (% of wild type): 23
MBP-TraR Q154E, P33905
  heterodimer formation (% of wild type) (% of wild type): 25
MBP-TraR G123R, P33905
  heterodimer formation (% of wild type) (% of wild type): 49
MBP-TraR A150E, P33905
  heterodimer formation (% of wild type) (% of wild type): 14
MBP-TraR F161A, P33905
  heterodimer formation (% of wild type) (% of wild type): 49
MBP-TraR I155F, P33905
  heterodimer formation (% of wild type) (% of wild type): 50
MBP-TraR A150V, P33905
  heterodimer formation (% of wild type) (% of wild type): 15
